Target: GST-EVH1 domain of VASP (UniProt P50552 1-113)
Assay: pull-down

GST-EVH1 domain of VASP, sequence (P50552 1-113): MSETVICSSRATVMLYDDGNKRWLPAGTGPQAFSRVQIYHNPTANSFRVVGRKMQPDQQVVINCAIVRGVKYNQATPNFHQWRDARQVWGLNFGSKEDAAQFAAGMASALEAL

B1: endogenous TRIM9 (mouse embryonic cortex) (natural protein, mouse (endogenous in embryonic cortex), UniProt Q8C7M3 1-817, looked up)
chain: MEEMEEELKCPVCGSFYREPIILPCSHNLCQACARNILVQTPESESPQSRRASGSGVSDYDYLDLDKMSLYSEADSGYGSYGGFASAPTTPCQKSPNGVRVFPPAMPPPPTHLSPALAPVPRNSCITCPQCHRSLILDDRGLRGFPKNRVLEGVIDRYQQSKAAALKCQLCEKAPKEATVMCEQCDVFYCDPCRLRCHPPRGPLAKHRLVPPAQGRVSRRLSPRKVSTCTDHELENHSMYCVQCKMPVCYQCLEEGKHSSHEVKALGAMWKLHKSQLSQALNGLSDRAKEAKEFLVQLRTMVQQIQENSVEFEACLVAQCDALIDALNRRKAQLLARVNKEHEHKLKVVRDQISHCTVKLRQTTGLMEYCLEVIKENDPSGFLQISDALIRRVHLTEDQWGKGTLTPRMTTDFDLSLDNSPLLQSIHQLDFVQVKASSPVPATPILQLEECCTHNNSATLSWKQPPLSTVAADGYILELDDGSGGQFREVYVGKETMCTVDGLHFNSTYNARVKAFNKTGVSPYSKTLVLQTSEAAGAHETKPMKDTDSEEQTLPFPVPSERLPLRRMSPFSSTLNLQPSFPGRSYFDFRSSPHQLSLHSSLQSLNAPGCNFETQSASYSQLVDIKKLLAVAWFAFDPGSAHSDIIFSNDNLTVTCSSYDDRVVLGKTGFSKGVHYWELTIDRYDNHPDPAFGVARIDVMKDMMLGKDDKAWAMYVDNNRSWFMHNNSHTNRTEGGITKGATIGVLLDLNRKTLTFFVNNEQQGPIAFENVEGLFFPAVSLNRNVQVSLWAPGLRACSGCYFKVCPGAVKSPQAPAP
- fold change of TRIM9 precipitated, Trim67-/- lysate against WT lysate: ~2 fold

Reference: paper PMC7039193 (The Journal of Cell Biology, 2019)
